Patent publication US20210054055A1 (UNIVERSITY OF VERMONT AND STATE AGRICULTURAL COLLEGE, published 2021)
Where two headings read alike, the source gives them in different places.

T1: MR766
T1 envelope protein E: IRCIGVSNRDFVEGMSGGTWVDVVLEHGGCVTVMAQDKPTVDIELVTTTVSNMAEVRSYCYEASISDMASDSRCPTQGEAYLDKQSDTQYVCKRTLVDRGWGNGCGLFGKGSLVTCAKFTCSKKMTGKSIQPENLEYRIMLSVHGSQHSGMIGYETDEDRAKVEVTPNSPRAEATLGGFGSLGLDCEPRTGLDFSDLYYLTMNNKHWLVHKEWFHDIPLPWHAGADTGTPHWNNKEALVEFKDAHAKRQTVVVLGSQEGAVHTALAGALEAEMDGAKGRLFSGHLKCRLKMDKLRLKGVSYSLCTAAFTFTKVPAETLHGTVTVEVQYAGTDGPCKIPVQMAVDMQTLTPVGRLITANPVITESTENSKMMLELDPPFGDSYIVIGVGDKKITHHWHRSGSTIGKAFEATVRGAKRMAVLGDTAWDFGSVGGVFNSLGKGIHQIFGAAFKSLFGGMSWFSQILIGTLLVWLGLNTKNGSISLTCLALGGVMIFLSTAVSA

B1: Anti-ZIKV clone DT168(A)-D1_G-9E (G9E) (antibody, V domains shown)
VH: EVQLVESGGGVVQPGRSLRLSCVASGFAFSNYHMHWVRQAPGKGLEWVAIIWDDGSDQYYADSVKGRFTISRDNSKNTLFLQMNRLRAEDTALYYCVGGSSAYNGDNGWREAASLDDWGQGTLVTVSS
VL: QSALTQPASVSGSPGQSITIFCSGSSNDVGGYNYVSWYQQYPGKVPKLLIYDVNSRPSGVSNRFSGSKSGNTASLTISGLQAEDEADYYCSSYTSRRTWVFGGGTIVTVL
notes: also called ZV2; G9E mAb
B2: Anti-ZIKV clone DT168(A)-D1_A-9E (A9E) (antibody, V domains shown)
VH: EVQLLESGGGLVQAGGSLRLSCAASGFTFDTYAMSWVRQPPGKGLEWVSAISTGGGSKYYADSVKGRLTISRDNSQNTLYLQMSSLRADDTAVYYCARSDFWRSGRYYYYMDVWGRGTTVTVSS
VL: QSALTQPASVSASPGQSITISCTGTHFDIVDYDYLSWYQQHPGNAPKLLIYGVSNRPSGVSSRFSGSKSGNTASLTISGLQAEDEGDYYCSSYSISSTLLVFGGGTKLSV
notes: also called ZV1; A9E mAb

How the values were obtained:
[1] = target: T2, ZIKV recombinant E (ZIKV E80), recombinantly expressed monomeric ectodomain of ZIKV E protein (Zika virus, UniProt A0A024B7W1 291-694)
[2] = target: T3, Zika virus (ZIKV) virions, envelope protein E (Zika virus, UniProt A0A024B7W1 291-794)
[3] = target: T2, ZIKV recombinant E (ZIKV E80), …; remark: listed apart in the source
[4] = target: T3, Zika virus (ZIKV) virions, envelope …; remark: listed apart in the source
[5] = target: T3, Zika virus (ZIKV) virions, envelope …; remark: listed apart in the source
[6] = target: T3, Zika virus (ZIKV) virions, envelope …; remark: listed apart in the source
[7] = target: T2, ZIKV recombinant E (ZIKV E80), …; remark: listed apart in the source
[8] = target: T3, Zika virus (ZIKV) virions, envelope …; remark: listed apart in the source
[9] = target: T4, Dengue virus serotype 1 (DENV1) virions, envelope protein E (Dengue virus 1, UniProt P17763 281-775); assay: antigen capture ELISA
T4 construct: domain: envelope protein E
T4 sequence (P17763 281-775 limits assumed): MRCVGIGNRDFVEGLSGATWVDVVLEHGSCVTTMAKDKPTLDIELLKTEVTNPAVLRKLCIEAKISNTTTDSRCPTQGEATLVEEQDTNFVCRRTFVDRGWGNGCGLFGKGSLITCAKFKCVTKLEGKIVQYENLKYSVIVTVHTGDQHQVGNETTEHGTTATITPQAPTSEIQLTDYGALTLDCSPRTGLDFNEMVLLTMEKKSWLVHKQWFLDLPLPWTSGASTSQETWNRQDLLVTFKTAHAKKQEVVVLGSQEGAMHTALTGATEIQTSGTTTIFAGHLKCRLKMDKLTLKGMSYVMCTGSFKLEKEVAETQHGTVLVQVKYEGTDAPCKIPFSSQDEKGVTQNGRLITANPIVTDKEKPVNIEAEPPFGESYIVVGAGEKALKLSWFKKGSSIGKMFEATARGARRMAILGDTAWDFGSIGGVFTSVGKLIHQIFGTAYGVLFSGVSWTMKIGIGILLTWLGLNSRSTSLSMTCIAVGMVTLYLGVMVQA

[10] = target: T5, ZVEDI, recombinant ZIKV E domain I (Zika virus, UniProt A0A024B7W1 291-585); assay: direct antigen coating ELISA
[11] = target: ZVEDIII, recombinant ZIKV E domain III (Zika virus, UniProt A0A024B7W1 586-693); assay: direct antigen coating ELISA
ZVEDIII, recombinant ZIKV E domain III, sequence (A0A024B7W1 586-693 limits assumed): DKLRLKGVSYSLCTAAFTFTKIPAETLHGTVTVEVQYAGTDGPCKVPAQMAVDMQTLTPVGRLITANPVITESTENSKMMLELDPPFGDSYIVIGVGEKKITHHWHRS

H/PF/2013 = H/PF/2013 (Zika virus); assay: cell-based or functional assay
Dakar = Dakar (Zika virus); assay: cell-based or functional assay
MR766 = target: T1, MR766; assay: cell-based or functional assay
[12] = target: ZIKV/2015/Paraiba, envelope protein E (Zika virus strain ZIKV/2015/Paraiba); assay: cell-based or functional assay
[13] = target: T2, ZIKV recombinant E (ZIKV E80), …; assay: direct antigen coating ELISA, 50 ng recombinant antigen per well; target ZIKV E80
[14] = target: T5, ZVEDI, recombinant ZIKV E domain I; assay: direct antigen coating ELISA, 50 ng recombinant antigen per well; target ZVEDI (domain I)

Binder	EC50 (read off the curve) [1]	EC50 (read off the curve) [2]	EC50 (read off the curve) [3]	IC50 (read off the curve) [4]	IC50 (read off the curve) [5]	EC50 (read off the curve) [6]	EC50 (read off the curve) [7]	IC50 (read off the curve) [8]	binding result [9]	binding result [10]	binding result [11]	FRNT50 (focus reduction neutralization on Vero cells) (H/PF/2013)	FRNT50 (focus reduction neutralization on Vero cells) (Dakar)	FRNT50 (focus reduction neutralization on Vero cells) (MR766)	EC50, Vero-based neutralization assay against ZIKA/2015/Paraiba [12]	EC50 [13]	EC50 [14]
B1	~300 ng/mL	~30 ng/mL	~200 ng/mL	~50 ng/mL	~400 ng/mL	~30 ng/mL	~200 ng/mL	~50 ng/mL	no binding	no binding	no binding	4.7 ng/mL	14.6 ng/mL	2.3 ng/mL	–	–	–
B2	–	~20 ng/mL	–	~70 ng/mL	~8 ng/mL	~20 ng/mL	–	~60 ng/mL	no binding	–	no binding	4.7 ng/mL	21.7 ng/mL	5.3 ng/mL	5 to 10 ng/mL	0.04 µg/mL	2.5 µg/mL
